Assay results reported in US6429305.

Molecular target: growth hormone receptor on ZFL cells (zebrafish liver cell line) (zebrafish)
Assay: cell-based or functional assay

human growth hormone (from UniProt P01241 27-217) (ligand)
increase in cell proliferation relative to no growth hormone added (MTS-formazan conversion assay, ZFL cells): 13.7%
